Assay results taken from paper PMC8564274 (Signal Transduction and Targeted Therapy, 2021).

Legend:
[1] = target: T1, prefusion-stabilized ectodomain of the SARS-CoV-2 spike (SARS-CoV-2, WH01, stabilised); assay: BLI; conditions: both partners purified
[2] = target: T1, prefusion-stabilized ectodomain of the …; assay: cell-based or functional assay

B1: n3113.1 (VHH)
VHH: EVQLVESGGGLVQPGGSLRLSCAASDSSFYDYEMSWVRQAPGKAQEWIGSMYPSGRTYINPSLKSLVTISRDNSKNTLYLQLNSLRAEDTAMYYCVSNWASGSTGDYWGQGTLVTVSS
- Kd [1]: 63.8 nM
- IC50 of neutralisation of SARS-CoV-2 S pseudovirus [2]: 6 µg/mL
